Results from article PMC11261447.

Molecular target: HA-OGT-D4 (D-box mutant R351A/L354A) (UniProt O15294)

decrease in ubiquitination level of HA-OGT-D4 against HA-OGT-WT in 293T cells transfected with Myc-Ub and Flag-CDC20 (anti-HA precipitates blotted with anti-Myc): 50%
Substance: Flag-CDC20 (from UniProt Q12834 1-499) (natural protein)
